From the supplement of paper PMC7877785 come the findings set out here.

This series in a line: self-splicing fitness, log relative to wild type (ln ratio); higher = more splicing; Tetrahymena group I intron in knt gene, E. coli kanamycin selection, DiMSum; sequences stand for … in CUCUCU…GGAGGGAAAAGUUAUCAGGCAUGCACCUGGUAGCUAGUCUUUAAACCAAUAGAUUGCAUCGGUUUAAAAGGCAAGACCGUCAAAUUGCGGGAAAGGGGUCAACAGCCGUUCAGUACCAAGUCUCAGGGGAAACUUUGAGAUGGCCUUGCAAAGGGUAUGGUAAUAAGCUGACGGACAUGGUCCUAACCACGCAGCCAAGUCCUAAGUCAACAGAUCUUCUGUUGAUAUGGAUGCAGUUCACAGACUAAAUGUCGGUCGGGGAAGAUGUAUUCUUCUCAUAAGAUAUAGUCGGACCUCUCCUUAAUGGGAGCUAGCGGAUGAAGUGAUGCAACACUGGAGCCGCUGGGAACUAAUUUGUAUGCGAAAGUAUAUUGAUUAGUUUUGGAGUACUCGUGGUCG
The procedure, abridged: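 Six replicate transformations of E. coli BL21(DE3) with a pET-22b(+) library were grown overnight at 37°C or 30°C. The library randomised all eight P1ex-region intron nucleotides, the intron lying in the knt kanamycin-resistance gene, and plates were LB agar with or without 25 μg/mL kanamycin plus 100 μg/mL carbenicillin, 50 μM IPTG and 0.2% rhamnose. Pooled colonies were amplicon-sequenced on an Illumina HiSeq 2500, and fitness is the DiMSum error-weighted combination of wild-type-normalised replicate fold changes, kanamycin versus none.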

± gives the uncertainty stated by the source.

For the sequence ACCUAGCAAUAUUACGAGCG, the “self-splicing fitness (ln)” value is, setting by setting: (30 °C) -1.06 ± 0.085; (37 °C) -0.509 ± 0.097.
Turning to ACCUAGCAAUAUUACGAUUC, the “self-splicing fitness (ln)” value (30 °C) was -1.72 ± 0.083 and the “self-splicing fitness (ln)” value (37 °C) is -0.58 ± 0.097.
On the same counts, the results for ACCUAGCAAUAUUACGCAGG are -3.34 ± 0.23 and -2.73 ± 0.26.
For the sequence ACCUAGCAAUAUUACGCAUC, the “self-splicing fitness (ln)” value runs as follows: (30 °C) -1.83 ± 0.072; (37 °C) -0.436 ± 0.078.
The like results for ACCUAGCAAUAUUACGGACA were, in that order, -0.384 ± 0.075 and -0.189 ± 0.08.
With ACCUAGCAAUAUUACGGACC, the “self-splicing fitness (ln)” value was -0.548 ± 0.16 (30 °C) and 0.368 ± 0.17 (37 °C).
For ACCUAGCAAUAUUACGGCGA, the “self-splicing fitness (ln)” value was -1.49 ± 0.12 (30 °C) and -0.462 ± 0.11 (37 °C).
With ACCUAGCAAUAUUACGGGAG, the “self-splicing fitness (ln)” value is, setting by setting: (30 °C) -1.93 ± 0.072; (37 °C) -1.41 ± 0.088.
Regarding ACCUAGCAAUAUUACGGGGU, the “self-splicing fitness (ln)” value is, setting by setting: (30 °C) -3.47 ± 0.16; (37 °C) -2.61 ± 0.17.
The like results for ACCUAGCAAUAUUACGGUAC were, in that order, -3.75 ± 0.37 and -2.76 ± 0.26.
For the sequence ACCUAGCAAUAUUACGGUGC, the “self-splicing fitness (ln)” value is, setting by setting: (30 °C) -1.87 ± 0.074; (37 °C) -0.926 ± 0.092.
On the same counts, the results for ACCUAGCAAUAUUACGGUGU are -2.97 ± 0.1 and -1.93 ± 0.12.
The like results for ACCUAGCAAUAUUACGGUUG were, in that order, -3.37 ± 0.13 and -2.71 ± 0.17.
The like results for ACCUAGCAAUAUUACGUCAC were, in that order, -4.1 ± 0.18 and -1.83 ± 0.2.
As to ACCUAGCAAUAUUACGUCGC, the “self-splicing fitness (ln)” value is, setting by setting: (30 °C) -2.66 ± 0.18; (37 °C) -0.636 ± 0.15.
On the same counts, the results for ACCUAGCAAUAUUACGUCUG are -2.84 ± 0.2 and -2.03 ± 0.15.
Consider ACCUAGCAAUAUUACGUUAC, for which the “self-splicing fitness (ln)” value is -3.6 ± 0.21 (30 °C) and -3.13 ± 0.23 (37 °C).
On the same counts, the results for ACCUAGCAAUAUUACGUUCG are -1.5 ± 0.078 and -0.444 ± 0.096.
For ACGAAGCAAUAUUACGACAC, the “self-splicing fitness (ln)” value (30 °C) is -2.4 ± 0.13 and the “self-splicing fitness (ln)” value (37 °C) was -0.952 ± 0.14.
The like results for ACGAAGCAAUAUUACGACAU were, in that order, -0.681 ± 0.011 and -0.109 ± 0.032.
As for ACGAAGCAAUAUUACGACCA, the “self-splicing fitness (ln)” value runs as follows: (30 °C) -0.752 ± 0.15; (37 °C) -0.848 ± 0.13.
For ACGAAGCAAUAUUACGACGA, the “self-splicing fitness (ln)” value reads like this: (30 °C) -1.04 ± 0.097; (37 °C) -0.181 ± 0.12.
In the case of ACGAAGCAAUAUUACGAGAA, the “self-splicing fitness (ln)” value (30 °C) is -1.6 ± 0.37.
Take ACGAAGCAAUAUUACGAGGA: the “self-splicing fitness (ln)” value is -3.29 ± 0.44 (30 °C) and -2 ± 0.29 (37 °C).
On the same counts, the results for ACGAAGCAAUAUUACGAGUU are -3.04 ± 0.11 and -1.91 ± 0.15.
On the same counts, the results for ACGAAGCAAUAUUACGAUCG are -0.102 ± 0.073 and 0.139 ± 0.11.
Take ACGAAGCAAUAUUACGAUGU: the “self-splicing fitness (ln)” value is, setting by setting: (30 °C) -3.96 ± 0.19; (37 °C) -2.74 ± 0.18.
In the case of ACGAAGCAAUAUUACGCACU, the “self-splicing fitness (ln)” value reads like this: (30 °C) -0.656 ± 0.094; (37 °C) -0.172 ± 0.11.
The like results for ACGAAGCAAUAUUACGCCGC were, in that order, -3.56 ± 0.21 and -2.02 ± 0.24.
On the same counts, the results for ACGAAGCAAUAUUACGCCGG are -0.858 ± 0.11 and -0.467 ± 0.11.
The like results for ACGAAGCAAUAUUACGCCUC were, in that order, -2.93 ± 0.31 and -1.77 ± 0.47.
As for ACGAAGCAAUAUUACGCGAC, the “self-splicing fitness (ln)” value was -3.14 ± 0.2 (30 °C) and -1.78 ± 0.19 (37 °C).
In the case of ACGAAGCAAUAUUACGCGUU, the “self-splicing fitness (ln)” value reads like this: (30 °C) -4.06 ± 0.33; (37 °C) -2 ± 0.21.
The like results for ACGAAGCAAUAUUACGGAAG were, in that order, -2.54 ± 0.12 and -2.4 ± 0.19.
The like results for ACGAAGCAAUAUUACGGCAC were, in that order, -2.03 ± 0.17 and -0.996 ± 0.24.
On the same counts, the results for ACGAAGCAAUAUUACGGCCG are -0.664 ± 0.19 and 0.746 ± 0.29.
ACGAAGCAAUAUUACGGGAG: the “self-splicing fitness (ln)” value (30 °C) is -3.96 ± 0.22 and the “self-splicing fitness (ln)” value (37 °C) was -2.73 ± 0.17.
The like results for ACGAAGCAAUAUUACGGUAC were, in that order, -5.02 ± 0.38 and -2.24 ± 0.17.
On the same counts, the results for ACGAAGCAAUAUUACGGUGG are -3.93 ± 0.15 and -2.56 ± 0.23.
Regarding ACGAAGCAAUAUUACGUAAC, the “self-splicing fitness (ln)” value (30 °C) is -4.3 ± 0.42 and the “self-splicing fitness (ln)” value (37 °C) is -2.34 ± 0.49.
The like results for ACGAAGCAAUAUUACGUAUA were, in that order, -2.5 ± 0.12 and -2.16 ± 0.12.
The like results for ACGAAGCAAUAUUACGUCAU were, in that order, -2.99 ± 0.12 and -2.81 ± 0.14.
The like results for ACGAAGCAAUAUUACGUUCU were, in that order, -1.24 ± 0.07 and -0.898 ± 0.081.
Turning to ACGAAGCAAUAUUACGUUGA, the “self-splicing fitness (ln)” value is -2.14 ± 0.17 (30 °C) and -1.22 ± 0.12 (37 °C).
As for ACGAAGCAAUAUUACGUUUG, the “self-splicing fitness (ln)” value is -1.27 ± 0.071 (30 °C) and -1.16 ± 0.11 (37 °C).
Turning to ACGCAGCAAUAUUACGACAC, the “self-splicing fitness (ln)” value was -1.83 ± 0.13 (30 °C) and -0.767 ± 0.16 (37 °C).
The like results for ACGCAGCAAUAUUACGAGCU were, in that order, -2.76 ± 0.12 and -1.18 ± 0.12.
On the same counts, the results for ACGCAGCAAUAUUACGAGGC are -2.95 ± 0.16 and -2.79 ± 0.3.
On the same counts, the results for ACGCAGCAAUAUUACGAGUU are -3.67 ± 0.13 and -1.6 ± 0.11.
As for ACGCAGCAAUAUUACGAUAA, the “self-splicing fitness (ln)” value was -2.84 ± 0.19 (30 °C) and -1.95 ± 0.15 (37 °C).
In the case of ACGCAGCAAUAUUACGAUAC, the “self-splicing fitness (ln)” value was -2.56 ± 0.2 (30 °C) and -1.87 ± 0.19 (37 °C).
The like results for ACGCAGCAAUAUUACGCCCC were, in that order, -0.51 ± 0.21 and -0.189 ± 0.28.
Consider ACGCAGCAAUAUUACGCGAG, for which the “self-splicing fitness (ln)” value is -2.56 ± 0.12 (30 °C) and -0.987 ± 0.11 (37 °C).
For the sequence ACGCAGCAAUAUUACGCUUG, the “self-splicing fitness (ln)” value (30 °C) is -3.56 ± 0.21 and the “self-splicing fitness (ln)” value (37 °C) is -2.55 ± 0.2.
On the same counts, the results for ACGCAGCAAUAUUACGGAAG are -3.57 ± 0.24 and -1.75 ± 0.16.
For ACGCAGCAAUAUUACGGAGC, the “self-splicing fitness (ln)” value (37 °C) was -2.47 ± 0.26.
On to ACGCAGCAAUAUUACGGGAA, for which the “self-splicing fitness (ln)” value (30 °C) was -2.99 ± 0.14 and the “self-splicing fitness (ln)” value (37 °C) is -2 ± 0.12.
On the same counts, the results for ACGCAGCAAUAUUACGGGUU are -2.19 ± 0.069 and -1.92 ± 0.092.
On the same counts, the results for ACGCAGCAAUAUUACGUAUC are -2.47 ± 0.2 and -1.18 ± 0.17.
The like results for ACGCAGCAAUAUUACGUCAC were, in that order, -4.13 ± 0.39 and -2.54 ± 0.19.
